In paper PMC7859452, “A Dimerization Site at SCR-17/18 in Factor H Clarifies a New Mechanism for Complement Regulatory Control” (Frontiers in Immunology, 2020):

Tests used:
[1] = target: the molecule itself; experiment: AUC; sedimentation velocity, c(s) size distribution (SEDFIT), 50,000 rpm, 20 °C, 10 mM Hepes pH 7.4, 50 mM NaCl (low salt control; data not shown); KD of dimer to monomers from integration of the c(s) peaks
[2] = target: the molecule itself; experiment: AUC; sedimentation velocity, c(s) size distribution (SEDFIT), 50,000 rpm, 20 °C, 10 mM Hepes pH 7.4, 137 mM NaCl, concentration series 0.2 – 3 mg/ml; KD of dimer to monomers from integration of the c(s) peaks

Row | Protein | Kd [1] [µM] | stoichiometry N [1] | Kd [2] [µM] | percent dimer [1] [%] | percent dimer [2] [%] | stoichiometry N [2]
1 | Complement Factor H SCR-18/20 fragment (domain or fragment, N-linked glycan chain on SCR-18) TSCVNPPTVQNAYIVSRQMSKYPSGERVRYQCRSPYEMFGDEEVMCLNGNWTEPPQCKDSTGKCGPPPPIDNGDITSFPLSVYAPASSVEYQCQNLYQLEGNKRITCRNGQWSEPPKCLHPCVISREIMENYNIALRWTAKQKLYSRTGESVEFVCKRGYRLSSRSHTLRTTCWDGKLEYPTCAKR | 180 ± 130 | 2 | 590 ± 150 |  |  | 
2 | Complement Factor H SCR-16/18H fragment (domain or fragment, N-linked glycan chains on SCR-17 and SCR-18) GLPCKSPPEISHGVVAHMSDSYQYGEEVTYKCFEGFGIDGPAIAKCLGEKWSHPPSCIKTDCLSLPSFENAIPMGEKKDVYKAGEQVTYTCATYYKMDGASNVTCINSRWTGRPTCRDTSCVNPPTVQNAYIVSRQMSKYPSGERVRYQCRSPYEMFGDEEVMCLNGNWTEPPQCKDST | ~10 |  | 6 ± 5 | 50 | 60 | 2
3 | Complement Factor H SCR-17/18H fragment (domain or fragment, N-linked glycan chains on SCR-17 and SCR-18) TDCLSLPSFENAIPMGEKKDVYKAGEQVTYTCATYYKMDGASNVTCINSRWTGRPTCRDTSCVNPPTVQNAYIVSRQMSKYPSGERVRYQCRSPYEMFGDEEVMCLNGNWTEPPQCKDST | 2 ± 1 |  | 3 ± 1 |  | 80 | 2
4 | Complement Factor H SCR-18H fragment (domain or fragment, also: N-linked glycan chain, site not given here) TSCVNPPTVQNAYIVSRQMSKYPSGERVRYQCRSPYEMFGDEEVMCLNGNWTEPPQCKDST | ~60 | 2 | 37 ± 27 |  | ~50 | 
5 | Complement Factor H SCR-17H fragment (domain or fragment, also: N-linked glycan chain, site not given here) TDCLSLPSFENAIPMGEKKDVYKAGEQVTYTCATYYKMDGASNVTCINSRWTGRPTCRDTS |  | 2 | 5 ± 4 |  | 80 | 
6 | Complement Factor H SCR-16/20 fragment (domain or fragment, N-linked glycan chains on SCR-17 and SCR-18) GLPCKSPPEISHGVVAHMSDSYQYGEEVTYKCFEGFGIDGPAIAKCLGEKWSHPPSCIKTDCLSLPSFENAIPMGEKKDVYKAGEQVTYTCATYYKMDGASNVTCINSRWTGRPTCRDTSCVNPPTVQNAYIVSRQMSKYPSGERVRYQCRSPYEMFGDEEVMCLNGNWTEPPQCKDSTGKCGPPPPIDNGDITSFPLSVYAPASSVEYQCQNLYQLEGNKRITCRNGQWSEPPKCLHPCVISREIMENYNIALRWTAKQKLYSRTGESVEFVCKRGYRLSSRSHTLRTTCWDGKLEYPTCAKR | 90 ± 20 | 2 | 31 ± 14 |  | 40 | 
